Data published in paper PMC2018723.

Biological target: viral nucleoprotein complex (HIV-1) (HIV-1 (pNL4-3))
Assay: co-sedimentation; concentrated vif-defective HIV-1 virions from transfected HeLa cells loaded on a 20%/60% sucrose step gradient overlaid with 100 ul of 1% Triton X-100 (results: 0.1% Triton X-100) or PBS; SW55Ti, 60 min, 35,000 rpm, 4°C; fractions S1-S3 immunoblotted for APOBEC, CA, NC, MA

APOBEC3G (from UniProt Q9HC16 1-384) (enzyme)
percent of virus-associated A3G copurifying with viral NPCs: > 70%
